Test results: patent US6365126

Target: H-Ras (UniProt P01112)
Sequence (P01112 whole entry, looked up): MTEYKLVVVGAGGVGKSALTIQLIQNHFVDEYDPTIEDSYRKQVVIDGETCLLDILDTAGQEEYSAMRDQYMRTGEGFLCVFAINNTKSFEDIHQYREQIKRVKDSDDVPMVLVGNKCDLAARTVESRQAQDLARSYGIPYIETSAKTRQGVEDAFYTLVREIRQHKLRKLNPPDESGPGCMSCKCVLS

“human NF1 catalytic domain fusion protein” was tested, and the “GTPase activity of H-Ras (GAP assay)” value was “All three fusion proteins stimulated the GTPase activity of H-Ras”.
